Measurements published in patent publication US20250388666A1 (BRIGHAM AND WOMEN S HOSPITAL, published 2025).
Several values for one entry are separate records, joined by “and”; a condition that tells them apart may be missing. Equal entries are not always repeated.

T1: CEACAM6 on transfected HeLa cells (UniProt P40199 35-320, limits assumed)
T1 construct: whole, on cells; also called C6
T1 sequence (looked up): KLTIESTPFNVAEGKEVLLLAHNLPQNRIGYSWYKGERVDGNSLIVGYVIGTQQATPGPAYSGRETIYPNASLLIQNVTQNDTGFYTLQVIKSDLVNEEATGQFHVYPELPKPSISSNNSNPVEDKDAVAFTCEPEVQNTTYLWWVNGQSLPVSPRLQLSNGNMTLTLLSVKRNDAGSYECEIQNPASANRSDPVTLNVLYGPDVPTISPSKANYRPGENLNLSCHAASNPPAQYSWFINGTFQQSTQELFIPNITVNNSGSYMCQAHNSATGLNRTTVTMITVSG

T2: CEACAM1 (Sino Biological) (human, UniProt P13688 35-428, limits assumed)
T2 construct: may be the same as CEACAM1-HIS; also called hCEACAM1; biotinylated soluble CEACAM1
T2 sequence: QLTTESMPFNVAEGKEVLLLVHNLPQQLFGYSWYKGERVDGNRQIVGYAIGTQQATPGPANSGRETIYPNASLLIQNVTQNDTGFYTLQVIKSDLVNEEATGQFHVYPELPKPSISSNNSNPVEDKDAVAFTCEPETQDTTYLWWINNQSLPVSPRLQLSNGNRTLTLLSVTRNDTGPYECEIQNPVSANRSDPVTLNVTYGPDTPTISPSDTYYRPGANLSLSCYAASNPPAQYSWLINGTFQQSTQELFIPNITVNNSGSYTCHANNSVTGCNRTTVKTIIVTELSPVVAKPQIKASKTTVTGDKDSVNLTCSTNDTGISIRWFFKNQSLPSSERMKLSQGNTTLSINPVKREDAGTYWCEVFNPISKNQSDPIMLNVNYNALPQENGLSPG

T3: CEACAM3 (Sino Biological) (human, UniProt P40198 35-155, limits assumed)
T3 construct: also called hCEACAM3
T3 sequence (looked up): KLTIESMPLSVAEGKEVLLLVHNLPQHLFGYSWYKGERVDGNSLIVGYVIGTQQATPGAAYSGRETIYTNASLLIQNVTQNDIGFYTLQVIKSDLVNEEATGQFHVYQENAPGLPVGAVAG

T4: CEACAM1-HIS (Sino Biologics Inc.) (Homo sapiens (Human), UniProt P13688 35-428)
T4 construct: bought; not shown: His tag
T4 sequence: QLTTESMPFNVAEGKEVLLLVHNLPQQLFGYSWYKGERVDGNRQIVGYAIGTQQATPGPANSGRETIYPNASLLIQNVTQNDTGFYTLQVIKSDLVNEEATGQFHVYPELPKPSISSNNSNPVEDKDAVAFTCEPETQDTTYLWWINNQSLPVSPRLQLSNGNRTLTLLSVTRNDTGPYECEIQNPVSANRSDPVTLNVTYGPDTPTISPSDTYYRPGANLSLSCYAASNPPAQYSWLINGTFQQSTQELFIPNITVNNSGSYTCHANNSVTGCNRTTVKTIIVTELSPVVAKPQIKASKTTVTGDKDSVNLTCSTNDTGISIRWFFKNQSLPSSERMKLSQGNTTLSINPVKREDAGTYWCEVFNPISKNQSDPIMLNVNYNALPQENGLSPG

T5: human GST-CEACAM1 (human, UniProt P13688 35-141, limits assumed)
T5 construct: printed both as GST-CEACAM1 and CEACAM1-GST; also called human CEACAM1-GST protein; hCEACAM1-GST; not shown: GST tag
T5 sequence: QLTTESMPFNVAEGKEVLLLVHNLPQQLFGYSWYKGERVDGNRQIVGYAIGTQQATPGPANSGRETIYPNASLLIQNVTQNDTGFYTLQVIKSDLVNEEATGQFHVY


Assays:
[1] = target: T1, CEACAM6 on transfected HeLa cells; assay: flow cytometry, transfected HeLa
In short: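 HeLa cells transfected separately with CEACAM1, CEACAM5 or CEACAM6 were stained with test antibodies, then fluorochrome-conjugated anti-isotype (human IgG4 or mouse IgG1) secondary plus DAPI viability dye. Binding read by flow cytometry.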

[2] = target: T2, CEACAM1 (Sino Biological); assay: SPR single-cycle; one of the two experiments; the Parent of the other experiment reads 551 nM (r135)
[3] = target: T3, CEACAM3 (Sino Biological); assay: binding ELISA on plate-coated CEACAM (0.5 µg/mL); antibody at 1.67, 0.062 and 0.0069 µg/mL; signal as % of parent IgG on CEACAM1 at 1.67 µg/mL on the same plate
[4] = target: T4, CEACAM1-HIS (Sino Biologics Inc.); assay: SPR multi-cycle, IgG on Protein A
Protocol: As an alternative approach to assess the binding of the antibody combinations and the control antibodies to CEACAM1, a kinetic analysis was performed on a Biacore T200 running Biacore T200 Evaluation Software V2.0.1. All experiments were run at 25° C. with HBS-P+ running buffer (pH 7.4).
For multi-cycle kinetic analysis purified antibody was immobilized at a protein concentration of 1 μg/mL in HBS-P+. At the start of each cycle, antibody was captured on Protein A to give an RU of ˜100 and the surface allowed to stabilize. Kinetic data was obtained at a flow rate of 35 μl/min to minimize any potential mass transfer effects. Multiple repeats of the blank (no CEACAM1) and a repeat of a single concentration of the analyte were programmed into the kinetic run in order to check the stability of both the surface and analyte over the kinetic cycles. For kinetic analysis, a 2-fold dilution series was selected from 100 to 1.5625 nM CEACAM1. The association phase of CEACAM1 was monitored initially for 180 seconds. In the subsequent experiment a longer association time (275 seconds) was used in order to better reach steady state. The dissociation phase was measured for 250 seconds. Regeneration of the Protein A surface was conducted using 2 injections of 10 mM glycine-HCL pH 1.5 at the end of each cycle.
The signal from the reference channel Fc1 was subtracted from that of Fc2, Fc3 and Fc4 to correct for differences in non-specific binding to a reference surface, a global Rmax parameter was used in the 1-to-1 binding model. The relative KD compared to the chimeric parental antibody was calculated by dividing the KD of the Composite Human Antibody™ variants by that of the chimeric parental antibody on the same chip.

human GST-CEACAM1 = target: T5, human GST-CEACAM1; assay: competition ELISA vs murine parent antibody
Protocol: The binding of the purified chimeric antibody to human CEACAM1 was assessed in a competition ELISA assay. Nunc Immuno MaxiSorp 96 well flat bottom microtitre plates were pre-coated with 1 μg/ml human GST-CEACAM1 in 1×PBS, overnight at 4° C. The following day the plates were blocked for 1 hour at room temperature with 2% BSA/PBS before washing 2× with PBS/0.05% Tween 20 pH 7.4.
The binding of the purified antibodies to human CEACAM1 were assessed in a competition ELISA assay as described above. The ability of each variant to compete against the murine parental antibody for binding to the GST-CEACAM1 was compared to that of the chimeric antibody (VH0/Vκ0), which was included on each plate.

Row | relative fluorescence intensity [1] | Kd [2] [nM] | binding result [3] | Kd [4] | koff [4] | kon [4] | relative KD to chimeric parental antibody [4] [ratio] | average relative IC50 (normalized to chimeric antibody) (human GST-CEACAM1) [ratio] | Binder
1 | 1.31 | 159 | no binding (tested: 1.67 µg/mL) | – | – | – | – | – | VH2 N56Q/Vκ4 S27(f)A IgG (antibody, V domains shown, IgG4 S241P, kappa; also called Parent; Parent IgG) VH: EVQLLESGGGLVQPGGSLRLSCAASGFSFSDYYLYWVRQAPGKGLEWVATISVGGGQTSYADSVKGRFTISRDNSKNTLYLQMNSLRAEDTAMYYCTRGLYYGPAWFAYWGQGTLVTVSS VL: not shown
2 | – | – | – | 27.2 nM and 22.3 nM and 19.5 nM | 0.0053 s⁻¹ and 0.00571 s⁻¹ and 0.00531 s⁻¹ | 195000 M⁻¹ s⁻¹ and 256000 M⁻¹ s⁻¹ and 272000 M⁻¹ s⁻¹ | 1 | 1 | chimeric parental antibody VH0/Vκ0 (antibody, IgG4, V domains shown, IgG4 (S241P), kappa; also called Chimera; chimeric antibody) VH: EVQLVESGGGFVKPGGSLKLSCAASGFSFSDYYLYWVRQTPEKRLEWVATISVGGGNTSYPDSVKGRFTISRDNAKNNLYLQMSSLKSEDTAMYYCTRGLYYGPAWFAYWGQGTLVTVSA VL: not shown
